From patent publication US20190225669A1 (ACCELERON PHARMA, published 2019)
Where two headings read alike, the source gives them in different places. One block for each binder: values may come before it.

What was measured:
[1] = target: T1, BMP6 (UniProt P22004 382-513, limits assumed); assay: Biacore SPR; kinetics indeterminate (transient)
T1 sequence (looked up): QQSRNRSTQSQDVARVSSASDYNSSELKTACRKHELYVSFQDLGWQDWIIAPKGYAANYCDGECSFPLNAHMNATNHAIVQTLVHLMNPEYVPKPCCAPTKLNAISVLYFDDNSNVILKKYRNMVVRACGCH

[2] = target: T2, BMP7 (UniProt P18075 293-431); assay: Biacore SPR; kinetics indeterminate (transient)
T2 sequence (looked up): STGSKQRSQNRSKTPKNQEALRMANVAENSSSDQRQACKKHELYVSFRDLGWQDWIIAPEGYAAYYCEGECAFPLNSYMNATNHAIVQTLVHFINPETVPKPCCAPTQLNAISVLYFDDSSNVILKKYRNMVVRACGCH

[3] = target: T2, BMP7; assay: Biacore SPR; kinetics indeterminate (transient); remark: listed apart in the source
Method: (§1) A Biacore™-based binding assay was used to compare ligand binding selectivity of the BMPRII-Fc:ALK2-Fc heterodimeric complex described above with that of BMPRII-Fc and ALK2-Fc homodimeric complexes. […] Ligands were injected and allowed to flow over the captured receptor protein.

[4] = target: T3, BMP15 (UniProt O95972 268-392); assay: Biacore SPR
T3 construct: also called GDF9b
T3 sequence (looked up): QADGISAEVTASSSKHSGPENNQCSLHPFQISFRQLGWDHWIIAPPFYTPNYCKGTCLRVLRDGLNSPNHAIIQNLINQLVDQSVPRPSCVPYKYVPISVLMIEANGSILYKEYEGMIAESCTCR
Method: (§2) Ligands were injected and allowed to flow over the captured receptor protein.

[5] = target: T3, BMP15; assay: Biacore SPR; remark: listed apart in the source
Method: as §1

[6] = target: T4, BMP5 (UniProt P22003 317-454, limits assumed); assay: Biacore SPR
T4 sequence (looked up): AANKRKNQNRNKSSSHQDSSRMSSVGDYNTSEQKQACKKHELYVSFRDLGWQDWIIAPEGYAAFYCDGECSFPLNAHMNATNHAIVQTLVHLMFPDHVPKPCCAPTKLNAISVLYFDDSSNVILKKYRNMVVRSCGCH
Method: as §1

[7] = target: T3, BMP15; assay: Biacore SPR; remark: listed apart in the source
Method: as §2

[8] = target: T3, BMP15; assay: Biacore SPR; remark: listed apart in the source
Method: as §2

[9] = target: T5, GDF6 (UniProt Q6KF10 336-455, limits assumed); assay: Biacore SPR; kinetics indeterminate (transient)
T5 construct: also called BMP13
T5 sequence (looked up): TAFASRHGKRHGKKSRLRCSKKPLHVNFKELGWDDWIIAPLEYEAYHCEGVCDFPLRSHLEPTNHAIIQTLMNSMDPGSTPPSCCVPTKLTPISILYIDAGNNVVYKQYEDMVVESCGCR
Method: as §2

[10] = target: T6, activin A (UniProt P08476 311-426); assay: Biacore SPR
T6 sequence (looked up): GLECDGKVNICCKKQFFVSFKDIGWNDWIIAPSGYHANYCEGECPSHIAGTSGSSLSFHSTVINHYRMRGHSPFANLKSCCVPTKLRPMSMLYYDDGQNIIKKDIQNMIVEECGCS
Method: as §2

[11] = target: T7, GDF8 (UniProt O14793 267-375); assay: Biacore SPR
T7 construct: also called myostatin
T7 sequence (looked up): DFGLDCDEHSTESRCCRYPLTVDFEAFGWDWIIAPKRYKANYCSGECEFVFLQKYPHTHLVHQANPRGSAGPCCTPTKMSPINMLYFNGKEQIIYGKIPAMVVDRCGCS
Method: as §2

[12] = target: T8, GDF5 (UniProt P43026 382-501); assay: Biacore SPR
T8 construct: also called BMP14
T8 sequence (looked up): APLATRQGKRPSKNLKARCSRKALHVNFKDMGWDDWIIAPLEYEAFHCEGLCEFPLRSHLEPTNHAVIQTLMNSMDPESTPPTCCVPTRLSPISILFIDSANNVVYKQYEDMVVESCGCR
Method: as §2

[13] = target: T9, activin B (UniProt P09529 293-407); assay: Biacore SPR
T9 sequence (looked up): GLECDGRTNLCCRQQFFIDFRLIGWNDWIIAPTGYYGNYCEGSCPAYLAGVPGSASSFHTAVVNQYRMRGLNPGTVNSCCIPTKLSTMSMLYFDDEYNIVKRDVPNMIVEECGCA
Method: as §2

[14] = target: T10, GDF3 (UniProt Q9NR23 251-364); assay: Biacore SPR
T10 sequence (looked up): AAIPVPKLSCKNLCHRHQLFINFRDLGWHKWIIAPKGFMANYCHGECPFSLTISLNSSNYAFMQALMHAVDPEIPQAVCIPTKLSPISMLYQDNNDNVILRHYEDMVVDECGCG
Method: as §2

[15] = target: T11, BMP9 (UniProt Q9UK05 320-429); assay: Biacore SPR
T11 construct: also called GDF2
T11 sequence (looked up): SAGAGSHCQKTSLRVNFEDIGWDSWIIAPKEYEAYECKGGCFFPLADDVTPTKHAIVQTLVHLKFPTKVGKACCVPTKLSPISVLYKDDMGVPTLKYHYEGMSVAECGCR
Method: as §2

[16] = target: T12, GDF11 (UniProt O95390 299-407); assay: Biacore SPR
T12 construct: also called BMP11
T12 sequence (looked up): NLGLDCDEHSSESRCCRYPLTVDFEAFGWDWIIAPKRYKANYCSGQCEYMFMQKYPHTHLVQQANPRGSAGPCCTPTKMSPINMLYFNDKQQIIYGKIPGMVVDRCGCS
Method: as §2

[17] = target: T4, BMP5; assay: Biacore SPR; remark: listed apart in the source
Method: as §2

[18] = target: T13, BMP10 (UniProt O95393 317-424); assay: Biacore SPR
T13 sequence (looked up): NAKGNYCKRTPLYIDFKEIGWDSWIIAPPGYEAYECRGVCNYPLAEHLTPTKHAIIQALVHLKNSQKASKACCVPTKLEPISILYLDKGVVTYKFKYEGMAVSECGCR
Method: as §2

[19] = target: T2, BMP7; assay: Biacore SPR
Method: as §2

Kd [1]: > 8.9 nM
Kd [2]: > 38 nM
Kd [3]: > 93 nM
Kd [4]: 0.29 nM
koff [4]: 0.0028 s⁻¹
kon [4]: 9.9e+06 M⁻¹ s⁻¹
Kd [5]: 0.72 nM
koff [5]: 0.0042 s⁻¹
kon [5]: 5.8e+06 M⁻¹ s⁻¹
Kd [6]: 9.9 nM
koff [6]: 0.019 s⁻¹
kon [6]: 1.9e+06 M⁻¹ s⁻¹
Kd [7]: 0.29 nM
koff [7]: 0.0028 s⁻¹
kon [7]: 9.9e+06 M⁻¹ s⁻¹
Kd [8]: 0.29 nM
koff [8]: 0.0028 s⁻¹
kon [8]: 9.9e+06 M⁻¹ s⁻¹
B1: BMPRII-Fc homodimer (Fc fusion, UniProt Q13873 27-150, looked up, not shown: a dimerising Fc or GST)
chain: SQNQERLCAFKDPYQQDLGIGESRISHENGTILCSKGSTCYGLWEKSKGDINLVKQGCWSHIGDPQECHYEECVVTTTPPSIQNGTYRFCCCSTDLCNVNFTENFPPPDTTPLSPPHSFNRDET
notes: extracellular domain

Kd [9]: > 240 nM
Kd [10]: 0.076 nM
koff [10]: 0.0026 s⁻¹
kon [10]: 3.4e+07 M⁻¹ s⁻¹
Kd [11]: 0.36 nM
koff [11]: 0.00073 s⁻¹
kon [11]: 2.1e+06 M⁻¹ s⁻¹
Kd [12]: 5 nM
koff [12]: 0.0044 s⁻¹
kon [12]: 880000 M⁻¹ s⁻¹
Kd [13]: 0.047 nM
koff [13]: 0.00015 s⁻¹
kon [13]: 3.2e+06 M⁻¹ s⁻¹
Kd [14]: 6.5 nM
koff [14]: 0.012 s⁻¹
kon [14]: 1.8e+06 M⁻¹ s⁻¹
Kd [15]: 0.28 nM
koff [15]: 0.00089 s⁻¹
kon [15]: 3.2e+06 M⁻¹ s⁻¹
Kd [16]: 0.6 nM
koff [16]: 0.00093 s⁻¹
kon [16]: 1.6e+06 M⁻¹ s⁻¹
Kd [17]: 1.2 nM
koff [17]: 0.0014 s⁻¹
kon [17]: 1.2e+06 M⁻¹ s⁻¹
Kd [18]: 0.053 nM
koff [18]: 0.0029 s⁻¹
kon [18]: 5.5e+07 M⁻¹ s⁻¹
Kd [19]: 0.17 nM
koff [19]: 0.0026 s⁻¹
kon [19]: 1.5e+07 M⁻¹ s⁻¹
B2: ActRIIB-Fc:ALK2-Fc heterodimer (Fc fusion)
chain 1: GRGEAETRECIYYNANWELERTNQSGLERCEGEQDKRLHCYASWRNSSGTIELVKKGCWLDDFNCYDRQECVATEENPQVYFCCCEGNFCNERFTHLPEAGGPEVTYEPPPTAPTGGGTHTCPPCPAPELLGGPSVFLFPPKPKDTLMISRTPEVTCVVVDVSHEDPEVKFNWYVDGVEVHNAKTKPREEQYNSTYRVVSVLTVLHQDWLNGKEYKCKVSNKALPAPIEKTISKAKGQPREPQVYTLPPSRKEMTKNQVSLTCLVKGFYPSDIAVEWESNGQPENNYKTTPPVLKSDGSFFLYSKLTVDKSRWQQGNVFSCSVMHEALHNHYTQKSLSLSPGK
chain 2: MEDEKPKVNPKLYMCVCEGLSCGNEDHCEGQQCFSSLSINDGFHVYQKGCFQVYEQGKMTCKTPPSPGQAVECCQGDWCNRNITAQLPTKGKSFPGTQNFHLETGGGTHTCPPCPAPELLGGPSVFLFPPKPKDTLMISRTPEVTCVVVDVSHEDPEVKFNWYVDGVEVHNAKTKPREEQYNSTYRVVSVLTVLHQDWLNGKEYKCKVSNKALPAPIEKTISKAKGQPREPQVYTLPPSREEMTKNQVSLTCLVKGFYPSDIAVEWESNGQPENNYDTTPPVLDSDGSFFLYSDLTVDKSRWQQGNVFSCSVMHEALHNHYTQKSLSLSPG
notes: C-terminal Lys optional; also called ActRIIB-Fc:ALK2-Fc heterodimeric complex
